For the test, the target named is T1, α1-antitrypsin (UniProt P01009 25-418).
T1 construct: Co-expressed with HTRA1-V5 in HEK293 cells; Complex detected in serum-free conditioned medium by anti-V5 immunoblot; also called al-antitrypsin
The test can be described thus: co-expression in HEK293, anti-V5 immunoblot of conditioned medium. Here is the method: To assay formation of a stable complex with α1-antitrypsin, we transiently expressed α1-antitrypsin and either wild-type or mutated HTRA1 cDNAs with a VS tag at the C-terminus in HEK293 cells. These cells were grown in serum-free medium, and conditioned media were then immunoblotted with anti-V5 antibody.¹⁴

Here are results for one molecule from patent publication US20120100536A1 (UNIVERSITY OF TOKYO, published 2012).

T1 sequence (P01009 25-418 limits assumed): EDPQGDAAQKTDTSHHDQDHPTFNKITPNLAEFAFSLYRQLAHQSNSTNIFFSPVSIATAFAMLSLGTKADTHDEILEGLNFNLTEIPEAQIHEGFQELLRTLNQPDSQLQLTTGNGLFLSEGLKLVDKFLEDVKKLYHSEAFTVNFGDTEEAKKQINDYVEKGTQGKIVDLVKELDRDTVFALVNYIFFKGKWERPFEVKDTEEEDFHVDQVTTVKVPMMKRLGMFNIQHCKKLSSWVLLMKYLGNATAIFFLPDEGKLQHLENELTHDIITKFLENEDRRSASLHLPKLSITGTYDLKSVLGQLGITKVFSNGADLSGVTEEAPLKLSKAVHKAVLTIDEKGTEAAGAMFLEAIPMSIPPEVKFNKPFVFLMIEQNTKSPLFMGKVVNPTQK

B1: HTRA1 R302X with a V5 tag at the C-terminus (enzyme)
chain: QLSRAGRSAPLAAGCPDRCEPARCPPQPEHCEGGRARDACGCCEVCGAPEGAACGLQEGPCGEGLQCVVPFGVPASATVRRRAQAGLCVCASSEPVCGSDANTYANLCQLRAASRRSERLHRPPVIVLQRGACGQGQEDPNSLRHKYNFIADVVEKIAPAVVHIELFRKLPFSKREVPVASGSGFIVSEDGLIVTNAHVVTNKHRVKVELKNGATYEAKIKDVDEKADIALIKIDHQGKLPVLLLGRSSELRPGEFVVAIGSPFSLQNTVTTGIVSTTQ
notes: The range 1-301 is derived from that statement; not shown: C-terminal V5 tag
Turning to B1, the binding result was “no binding”.
